Test results: patent US20230406885A1, “CYCLIC PEPTIDES FOR TRAPPING INTERLEUKIN-1 BETA” (MERCK SHARP & DOHME LLC, priority 2022, published 2023)
*1 amine or outer side, *2 acyl side, *3 side chain or, on linkers, in order; H or OH if unused. [ ]: non-standard residue; d: D form. 3AzaPhe4AcPip = (S)-3-(6-(4-acetylpiperazin-1-yl)pyridin-3-yl)-2-aminopropanoic acid, CC(=O)N1CCN(c2ccc(C[C@H](N[*:1])C(=O)[*:2])cn2)CC1; Trp(4-Cl)(βS-Me) = C[C@@H](c1c[nH]c2cccc(Cl)c12)[C@H](N)C(=O)O; Pro(trans-4-NH2) = O=C([C@@H]1C[C@@H](N[*:3])CN1[*:1])[*:2]; Bip(4'-COOH) = N[C@@H](Cc1ccc(-c2ccc(C(=O)O)cc2)cc1)C(=O)O; Phe(3-CH2NH2) = O=C([C@H](Cc1cccc(CN[*:3])c1)N[*:1])[*:2]; 1Nal(3S-Me) = C[C@@H](c1cccc2ccccc12)[C@H](N)C(=O)O; Phe(4-COOH) = N[C@@H](Cc1ccc(C(=O)O)cc1)C(=O)O; Phe(4-CH2NH2) = NCc1ccc(C[C@H](N)C(=O)O)cc1; Phe(3-NH2) = Nc1cccc(C[C@H](N)C(=O)O)c1; Phe(4-NH2) = Nc1ccc(C[C@H](N)C(=O)O)cc1; hTyr = N[C@@H](CCc1ccc(O)cc1)C(=O)O; dDab = NCC[C@@H](N)C(=O)O; Orn = NCCC[C@H](N)C(=O)O; dNMeA = CN[C@H](C)C(=O)O; Dap = NC[C@H](N)C(=O)O

B1: SEQ ID NO: 50 (peptide)
peptide: cyclo([Bip(4'-COOH)]W[Phe(4-COOH)]G[Pro(trans-4-NH2)][Trp(4-Cl)(βS-Me)]D[dNMeA]G[Bip(4'-COOH)][Phe(3-NH2)]S[dA][hTyr])
SMILES: C[C@@H]1C(=O)NCC(=O)N[C@@H](Cc2ccc(-c3ccc(C(=O)O)cc3)cc2)C(=O)N[C@@H](Cc2cccc(N)c2)C(=O)N[C@@H](CO)C(=O)N[C@H](C)C(=O)N[C@@H](CCc2ccc(O)cc2)C(=O)N[C@@H](Cc2ccc(-c3ccc(C(=O)O)cc3)cc2)C(=O)N[C@@H](Cc2c[nH]c3ccccc23)C(=O)N[C@@H](Cc2ccc(C(=O)O)cc2)C(=O)NCC(=O)N2C[C@H](N)C[C@H]2C(=O)N[C@@H]([C@@H](C)c2c[nH]c3cccc(Cl)c23)C(=O)N[C@@H](CC(=O)O)C(=O)N1C
B2: SEQ ID NO: 53 (peptide)
peptide: cyclo([Bip(4'-COOH)]W[Phe(4-COOH)]G[Pro(trans-4-NH2)][Trp(4-Cl)(βS-Me)]D[dNMeA]G[Bip(4'-COOH)]W[Dap][dA][hTyr])
SMILES: C[C@@H]1C(=O)NCC(=O)N[C@@H](Cc2ccc(-c3ccc(C(=O)O)cc3)cc2)C(=O)N[C@@H](Cc2c[nH]c3ccccc23)C(=O)N[C@@H](CN)C(=O)N[C@H](C)C(=O)N[C@@H](CCc2ccc(O)cc2)C(=O)N[C@@H](Cc2ccc(-c3ccc(C(=O)O)cc3)cc2)C(=O)N[C@@H](Cc2c[nH]c3ccccc23)C(=O)N[C@@H](Cc2ccc(C(=O)O)cc2)C(=O)NCC(=O)N2C[C@H](N)C[C@H]2C(=O)N[C@@H]([C@@H](C)c2c[nH]c3cccc(Cl)c23)C(=O)N[C@@H](CC(=O)O)C(=O)N1C
B3: SEQ ID NO: 46 (peptide)
peptide: cyclo([Bip(4'-COOH)]W[Phe(4-COOH)]G[Pro(trans-4-NH2)][Trp(4-Cl)(βS-Me)]D[dNMeA]G[Bip(4'-COOH)]KS[dDab][hTyr])
SMILES: C[C@@H]1C(=O)NCC(=O)N[C@@H](Cc2ccc(-c3ccc(C(=O)O)cc3)cc2)C(=O)N[C@@H](CCCCN)C(=O)N[C@@H](CO)C(=O)N[C@H](CCN)C(=O)N[C@@H](CCc2ccc(O)cc2)C(=O)N[C@@H](Cc2ccc(-c3ccc(C(=O)O)cc3)cc2)C(=O)N[C@@H](Cc2c[nH]c3ccccc23)C(=O)N[C@@H](Cc2ccc(C(=O)O)cc2)C(=O)NCC(=O)N2C[C@H](N)C[C@H]2C(=O)N[C@@H]([C@@H](C)c2c[nH]c3cccc(Cl)c23)C(=O)N[C@@H](CC(=O)O)C(=O)N1C
B4: SEQ ID NO: 52 (peptide)
peptide: cyclo([Bip(4'-COOH)]W[Phe(4-COOH)]G[Pro(trans-4-NH2)][Trp(4-Cl)(βS-Me)]D[dNMeA]G[Bip(4'-COOH)][Phe(4-NH2)]S[dA][hTyr])
SMILES: C[C@@H]1C(=O)NCC(=O)N[C@@H](Cc2ccc(-c3ccc(C(=O)O)cc3)cc2)C(=O)N[C@@H](Cc2ccc(N)cc2)C(=O)N[C@@H](CO)C(=O)N[C@H](C)C(=O)N[C@@H](CCc2ccc(O)cc2)C(=O)N[C@@H](Cc2ccc(-c3ccc(C(=O)O)cc3)cc2)C(=O)N[C@@H](Cc2c[nH]c3ccccc23)C(=O)N[C@@H](Cc2ccc(C(=O)O)cc2)C(=O)NCC(=O)N2C[C@H](N)C[C@H]2C(=O)N[C@@H]([C@@H](C)c2c[nH]c3cccc(Cl)c23)C(=O)N[C@@H](CC(=O)O)C(=O)N1C
B5: SEQ ID NO: 44 (peptide)
peptide: cyclo([Bip(4'-COOH)]W[Phe(4-COOH)]G[Pro(trans-4-NH2)][Trp(4-Cl)(βS-Me)]D[dNMeA]G[Bip(4'-COOH)]KL[dS][hTyr])
SMILES: CC(C)C[C@@H]1NC(=O)[C@H](CCCCN)NC(=O)[C@H](Cc2ccc(-c3ccc(C(=O)O)cc3)cc2)NC(=O)CNC(=O)[C@@H](C)N(C)C(=O)[C@H](CC(=O)O)NC(=O)[C@H]([C@@H](C)c2c[nH]c3cccc(Cl)c23)NC(=O)[C@@H]2C[C@@H](N)CN2C(=O)CNC(=O)[C@H](Cc2ccc(C(=O)O)cc2)NC(=O)[C@H](Cc2c[nH]c3ccccc23)NC(=O)[C@H](Cc2ccc(-c3ccc(C(=O)O)cc3)cc2)NC(=O)[C@H](CCc2ccc(O)cc2)NC(=O)[C@@H](CO)NC1=O
B6: SEQ ID NO: 47 (peptide)
peptide: cyclo([Bip(4'-COOH)]W[Phe(4-COOH)]G[Pro(trans-4-NH2)][Trp(4-Cl)(βS-Me)]D[dNMeA]G[Bip(4'-COOH)]KS[dS][hTyr])
SMILES: C[C@@H]1C(=O)NCC(=O)N[C@@H](Cc2ccc(-c3ccc(C(=O)O)cc3)cc2)C(=O)N[C@@H](CCCCN)C(=O)N[C@@H](CO)C(=O)N[C@H](CO)C(=O)N[C@@H](CCc2ccc(O)cc2)C(=O)N[C@@H](Cc2ccc(-c3ccc(C(=O)O)cc3)cc2)C(=O)N[C@@H](Cc2c[nH]c3ccccc23)C(=O)N[C@@H](Cc2ccc(C(=O)O)cc2)C(=O)NCC(=O)N2C[C@H](N)C[C@H]2C(=O)N[C@@H]([C@@H](C)c2c[nH]c3cccc(Cl)c23)C(=O)N[C@@H](CC(=O)O)C(=O)N1C
B7: SEQ ID NO: 51 (peptide)
peptide: cyclo([Bip(4'-COOH)]W[Phe(4-COOH)]G[Pro(trans-4-NH2)][Trp(4-Cl)(βS-Me)]D[dNMeA]G[Bip(4'-COOH)][Phe(4-CH2NH2)]S[dA][hTyr])
SMILES: C[C@@H]1C(=O)NCC(=O)N[C@@H](Cc2ccc(-c3ccc(C(=O)O)cc3)cc2)C(=O)N[C@@H](Cc2ccc(CN)cc2)C(=O)N[C@@H](CO)C(=O)N[C@H](C)C(=O)N[C@@H](CCc2ccc(O)cc2)C(=O)N[C@@H](Cc2ccc(-c3ccc(C(=O)O)cc3)cc2)C(=O)N[C@@H](Cc2c[nH]c3ccccc23)C(=O)N[C@@H](Cc2ccc(C(=O)O)cc2)C(=O)NCC(=O)N2C[C@H](N)C[C@H]2C(=O)N[C@@H]([C@@H](C)c2c[nH]c3cccc(Cl)c23)C(=O)N[C@@H](CC(=O)O)C(=O)N1C
B8: SEQ ID NO: 45 (peptide)
peptide: cyclo([Bip(4'-COOH)]W[Phe(4-COOH)]G[Pro(trans-4-NH2)][Trp(4-Cl)(βS-Me)]D[dNMeA]G[Bip(4'-COOH)]KS[dA][hTyr])
SMILES: C[C@@H]1C(=O)NCC(=O)N[C@@H](Cc2ccc(-c3ccc(C(=O)O)cc3)cc2)C(=O)N[C@@H](CCCCN)C(=O)N[C@@H](CO)C(=O)N[C@H](C)C(=O)N[C@@H](CCc2ccc(O)cc2)C(=O)N[C@@H](Cc2ccc(-c3ccc(C(=O)O)cc3)cc2)C(=O)N[C@@H](Cc2c[nH]c3ccccc23)C(=O)N[C@@H](Cc2ccc(C(=O)O)cc2)C(=O)NCC(=O)N2C[C@H](N)C[C@H]2C(=O)N[C@@H]([C@@H](C)c2c[nH]c3cccc(Cl)c23)C(=O)N[C@@H](CC(=O)O)C(=O)N1C
B9: SEQ ID NO: 49 (peptide)
peptide: cyclo([Bip(4'-COOH)]W[Phe(4-COOH)]G[Pro(trans-4-NH2)][Trp(4-Cl)(βS-Me)]D[dNMeA]G[Bip(4'-COOH)][Orn]S[dA][hTyr])
SMILES: C[C@@H]1C(=O)NCC(=O)N[C@@H](Cc2ccc(-c3ccc(C(=O)O)cc3)cc2)C(=O)N[C@@H](CCCN)C(=O)N[C@@H](CO)C(=O)N[C@H](C)C(=O)N[C@@H](CCc2ccc(O)cc2)C(=O)N[C@@H](Cc2ccc(-c3ccc(C(=O)O)cc3)cc2)C(=O)N[C@@H](Cc2c[nH]c3ccccc23)C(=O)N[C@@H](Cc2ccc(C(=O)O)cc2)C(=O)NCC(=O)N2C[C@H](N)C[C@H]2C(=O)N[C@@H]([C@@H](C)c2c[nH]c3cccc(Cl)c23)C(=O)N[C@@H](CC(=O)O)C(=O)N1C
B10: SEQ ID NO: 43 (peptide)
peptide: cyclo([Bip(4'-COOH)]W[Phe(4-COOH)]G[Pro(trans-4-NH2)][Trp(4-Cl)(βS-Me)]D[dNMeA]G[Bip(4'-COOH)]KL[dDab][hTyr])
SMILES: CC(C)C[C@@H]1NC(=O)[C@H](CCCCN)NC(=O)[C@H](Cc2ccc(-c3ccc(C(=O)O)cc3)cc2)NC(=O)CNC(=O)[C@@H](C)N(C)C(=O)[C@H](CC(=O)O)NC(=O)[C@H]([C@@H](C)c2c[nH]c3cccc(Cl)c23)NC(=O)[C@@H]2C[C@@H](N)CN2C(=O)CNC(=O)[C@H](Cc2ccc(C(=O)O)cc2)NC(=O)[C@H](Cc2c[nH]c3ccccc23)NC(=O)[C@H](Cc2ccc(-c3ccc(C(=O)O)cc3)cc2)NC(=O)[C@H](CCc2ccc(O)cc2)NC(=O)[C@@H](CCN)NC1=O
B11: SEQ ID NO: 5 (peptide)
peptide: cyclo([3AzaPhe4AcPip]W[Phe(4-COOH)]G[Pro(trans-4-NH2)][1Nal(3S-Me)]D[dNMeA]G[Bip(4'-COOH)]W[Dap][dA][hTyr])
SMILES: CC(=O)N1CCN(c2ccc(C[C@@H]3NC(=O)[C@H](CCc4ccc(O)cc4)NC(=O)[C@@H](C)NC(=O)[C@H](CN)NC(=O)[C@H](Cc4c[nH]c5ccccc45)NC(=O)[C@H](Cc4ccc(-c5ccc(C(=O)O)cc5)cc4)NC(=O)CNC(=O)[C@@H](C)N(C)C(=O)[C@H](CC(=O)O)NC(=O)[C@H]([C@@H](C)c4cccc5ccccc45)NC(=O)[C@@H]4C[C@@H](N)CN4C(=O)CNC(=O)[C@H](Cc4ccc(C(=O)O)cc4)NC(=O)[C@H](Cc4c[nH]c5ccccc45)NC3=O)cn2)CC1
B12: SEQ ID NO: 48 (peptide)
peptide: cyclo([Bip(4'-COOH)]W[Phe(4-COOH)]G[Pro(trans-4-NH2)][Trp(4-Cl)(βS-Me)]D[dNMeA]G[Bip(4'-COOH)][Phe(3-CH2NH2)]S[dA][hTyr])
SMILES: C[C@@H]1C(=O)NCC(=O)N[C@@H](Cc2ccc(-c3ccc(C(=O)O)cc3)cc2)C(=O)N[C@@H](Cc2cccc(CN)c2)C(=O)N[C@@H](CO)C(=O)N[C@H](C)C(=O)N[C@@H](CCc2ccc(O)cc2)C(=O)N[C@@H](Cc2ccc(-c3ccc(C(=O)O)cc3)cc2)C(=O)N[C@@H](Cc2c[nH]c3ccccc23)C(=O)N[C@@H](Cc2ccc(C(=O)O)cc2)C(=O)NCC(=O)N2C[C@H](N)C[C@H]2C(=O)N[C@@H]([C@@H](C)c2c[nH]c3cccc(Cl)c23)C(=O)N[C@@H](CC(=O)O)C(=O)N1C

Target: Recombinant human IL-1β (BioLegend 579404) (human, UniProt P01584 117-269)
Assay: cell-based or functional assay

Binder	MRC5 IC50
B1	0.52 nM
B2	0.0418 nM
B3	0.134 nM
B4	0.454 nM
B5	0.132 nM
B6	0.123 nM
B7	0.32 nM
B8	0.174 nM
B9	0.402 nM
B10	0.244 nM
B11	0.674 nM
B12	0.041 nM
